Data set [1] concerns the target His6-tagged protealysin (Serratia proteamaculans).
For another data set, the target named is thermolysin (UniProt P00800).
Data set [2] is classed as physicochemical. As to conditions: kinetic, from DMSO stock (6 µl + 500 µl), 50 mM Tris-HCl pH 7.4, room temperature, 24 h, spectrophotometric at 365 nm. The method, then:
The substrate sorption on labware complicated the measurement of the Abz-RSVIK(Dnp) solubility since the standard approach based on serial dilutions and identification of the linear range of the experimental concentration-dilution factor relationship could not be used. The substrate solubility was evaluated by periodic spectrophotometric quantitation of its dilutions immediately prepared from the stock in DMSO for one day. Up to 130 µM, the substrate solutions remained stable for 24 h (Supplementary Fig. S3); however, starting from 150 µM their optical density decreased with time. Thus, the substrate has reasonable water solubility and can be used in concentrations up to 130 µM.
The stock solutions (6 µl) in DMSO were supplemented with 500 µl of 50 mM Tris-HCl (pH 7.4). The solutions were incubated at room temperature and the concentration changes were controlled spectrophotometrically for 24 h (Supplementary Fig. S3).
Figure S3. Solubility of Abz-RSVIK(Dnp). Different substrate concentrations were prepared in microcentrifuge tubes (SSI). The stock solution was diluted with DMSO 1.3-20 times. The resulting solutions (6 µl) were supplemented with 500 µl of 50 mM Tris-HCl (pH 7.4). […] A. Measured substrate concentrations for all dilutions and time periods. B. Relationship between substrate concentration and stock quantity 5 h after dilution. […]

The test system of a further data set is protealysin (PLN). Kind of data set: 2.5 nM PLN in 10 mM NH4HCO3. The following applies: Serratia proteamaculans, 37 °C, up to 40 min.
The subject of the next data set is thermolysin (TLN). Kind of data set: 7.5 nM TLN in 10 mM NH4HCO3. The following applies: 37 °C, up to 40 min.
Substrate in data set [3]: CC[C@H](C)[C@H](NC(=O)[C@@H](NC(=O)[C@H](CO)NC(=O)[C@H](CCCNC(=N)N)NC(=O)c1ccccc1N)C(C)C)C(=O)N[C@@H](CCCCNc1ccc([N+](=O)[O-])cc1[N+](=O)[O-])C(=O)O
The experiment in a line: Protease activity assay using Abz-RSVIK(Dnp), hydrolysis kinetic parameters, thermolysin. The format is biochemical. As to conditions: other: thermolysin 2.5 nM, 37 °C, 50 mM Tris-HCl pH 7.4, substrate 2–130 mM as printed, fluorescence ex 320/em 420 nm, Michaelis-Menten fit, two independent experiments with triplicates. Here is the method: Desired substrate concentrations were obtained by dilution of the stock in DMSO in 50 mM Tris-HCl (pH 7.4).
For the activity assay, 100 µl of the substrate solution at 2–130 mM in 50 mM Tris-HCl (pH 7.4) was added into a well of a black 96-well plate. After incubation at 37 °C for 10 min, 25 µl of the substrate were taken away and replaced with 25 µl of the enzyme solution in the same buffer preheated at 37 °C, and time-related fluorescence changes were monitored on an Infinite M200 Pro (Tecan, Switzerland). Measurements were taken at 37 °C every 10 s for 2–5 min at the excitation and emission wavelengths of 320 and 420 nm, respectively. Fluorescence varied linearly for 3 min. The initial hydrolysis rates were determined from the data obtained within the first 95 s of the reaction. The concentrations of PLN and TLN in the reaction mix were 2.5 nM. In parallel with the hydrolysis rate measurements, the control was conducted with the buffer added to a well instead of an enzyme solution. The main goal of this control was to determine the substrate concentration in the reaction mix. After the incubation, the substrate solution was transferred into a spectrophotometer cell to measure its optical density at 365 nm. The concentration calculated from the obtained OD was taken as the initial substrate concentration in the hydrolysis reaction.
A calibration curve was plotted to convert the obtained relative fluorescence data into the hydrolyzed substrate concentration. […] The course of the reaction was followed by fluorescence changes as described above. The hydrolysis was considered as complete when the fluorescence signal remained steady even after an extra portion of the enzyme was added (Supplementary Fig. S4). After the incubation, serial dilutions of the reaction mix were made, introduced into wells of a 96-well plate and fluorescence was measured as described above. 2,4-Dinitrophenyl was quantified spectrophotometrically in each well as described above. The resulting values were used to plot a calibration curve in coordinates of relative fluorescence units, μM. […]

Non-standard residues stand in square brackets, D forms with d. Residues, ends and D or L forms follow the SMILES beside them. *: point of attachment. Dnp = O=[N+]([O-])c1ccc(*)c([N+](=O)[O-])c1; 2Abz = Nc1ccccc1C(=O)O

On to “2-aminobenzoyl-L-arginyl-L-seryl-L-valyl-L-isoleucyl-L-(ε-2,4-dinitrophenyl)lysine (peptide)”, for which the figures for the KM of hydrolysis of Abz-RSVIK(Dnp) at 37 °C (initial rates fitted to the Michaelis-Menten equation; 2.5 nM enzyme, 50 mM Tris-HCl pH 7.4) (in data set [1]; in the data set with thermolysin) were 35 μM and 33 μM, respectively.

Take `CC[C@H](C)[C@H](NC(=O)[C@@H](NC(=O)[C@H](CO)NC(=O)[C@H](CCCNC(=N)N)NC(=O)c1ccccc1N)C(C)C)C(=O)N[C@@H](CCCCNc1ccc([N+](=O)[O-])cc1[N+](=O)[O-])C(=O)O` [Abz-RSVIK(Dnp), 2-aminobenzoyl-L-arginyl-L-seryl-L-valyl-L-isoleucyl-L-(ε-2,4-dinitrophenyl)lysine] (H-[2Abz]RSVIK(Dnp)-OH): the “Solubility: concentration from which optical density decreased with time” value in data set [2] is reported as at least 150 µM.

In the case of Abz-Arg-Ser-Val-Ile-Lys(Dnp), the cleaved bond entry in the data set with protealysin (PLN) was “Ser-Val, 20 min”; in the data set on thermolysin (TLN), “Ser-Val, 20 min”. For the same molecule, the not cleaved entry in the data set on protealysin (PLN) and in the data set with thermolysin (TLN) was “products remain undetectable after the time period (40 min)” each time.

B1: thermolysin (TLN) (Bacillus thermoproteolyticus) (protein)
chain: ITGTSTVGVGRGVLGDQKNINTTYSTYYYLQDNTRGNGIFTYDAKYRTTLPGSLWADADNQFFASYDAPAVDAHYYAGVTYDYYKNVHNRLSYDGNNAAIRSSVHYSQGYNNAFWNGSQMVYGDGDGQTFIPLSGGIDVVAHELTHAVTDYTAGLIYQNESGAINEAISDIFGTLVEFYANKNPDWEIGEDVYTPGISGDSLRSMSDPAKYGDPDHYSKRYTGTQDNGGVHINSGIINKAAYLISQGGTHYGVSVVGIGRDKLGKIFYRALTQYLTPTSNFSQLRAAAVQSATDLYGSTSQEVASVKQAFDAVGVK
notes: purchased Serva, Germany
For orientation: Km means the substrate concentration at which the rate is half of its maximum. In general, kcat refers to the number of substrate molecules converted per active site and unit of time at saturation. By kcat/Km is commonly meant the second-order rate constant that governs catalysis at low substrate concentration. Turning to B1, in data set [3], the Michaelis-Menten constant (Km) is 33 ± 8 µM, the kcat was found to be 7 ± 1 s⁻¹ and the kcat/Km amounted to 210000 ± 60000 M⁻¹ s⁻¹.

Values taken from PMC6778150 (Scientific Reports, 2019).
